Mean Channel Fluorescence and activity data for 9 substances are collected here from patent US20100291048A1.

Series [1] concerns the target CXCR4 isoform b, WT (352 a.a.) (human) (UniProt P61073). Put plainly: flow cytometry on parental SupT1 cells, PE anti-mouse IgG secondary.
For a further series, the system named is ZFN 12257 (synthetic). Put plainly: cell_activity. The following applies: K562, pair with 12329 (pairing inferred from adjacent sites), Surveyor assay.
A further series relates to ZFN 12270 (synthetic). As to the kind of experiment: cell_activity. The following applies: K562, pair with 12273, Surveyor assay; 34.6% in enriched SupT1 pool, >40% in primary CD4 T cells.
A further series deals with ZFN 12273 (synthetic). Put plainly: cell_activity. The following applies: K562, pair with 12270, Surveyor assay; 34.6% in enriched SupT1 pool, >40% in primary CD4 T cells.
The next series relates to ZFN 12281 (synthetic). Put plainly: cell_activity. The following applies: K562, pair with 12290 (pairing inferred from adjacent sites), Surveyor assay.
Another series deals with ZFN 12329 (synthetic). Put plainly: cell_activity. The following applies: K562, pair with 12257 (pairing inferred from adjacent sites), Surveyor assay.
The subject of another series is ZFN 12290 (synthetic). Put plainly: cell_activity. To be noted: K562, pair with 12281 (pairing inferred from adjacent sites), Surveyor assay.
Series [2] concerns the target HLA Class I. As to the kind of experiment: flow cytometry on SupT1 clone B13, PE anti-mouse IgG secondary. A general note: Flow cytometry measures light scatter and fluorescence of single cells or particles in a stream.
The target in series [3] is HLA Class I. Put plainly: flow cytometry on parental SupT1 cells, PE anti-mouse IgG secondary.
Series [4] deals with HLA Class I. As to the kind of experiment: flow cytometry on SupT1 clone A66, PE anti-mouse IgG secondary.
Series [5] deals with HLA Class I. Put plainly: flow cytometry on SupT1 clone B4, PE anti-mouse IgG secondary.

Some results are limits rather than exact numbers.

UniProt P61073, sequence (P61073 whole entry, canonical isoform): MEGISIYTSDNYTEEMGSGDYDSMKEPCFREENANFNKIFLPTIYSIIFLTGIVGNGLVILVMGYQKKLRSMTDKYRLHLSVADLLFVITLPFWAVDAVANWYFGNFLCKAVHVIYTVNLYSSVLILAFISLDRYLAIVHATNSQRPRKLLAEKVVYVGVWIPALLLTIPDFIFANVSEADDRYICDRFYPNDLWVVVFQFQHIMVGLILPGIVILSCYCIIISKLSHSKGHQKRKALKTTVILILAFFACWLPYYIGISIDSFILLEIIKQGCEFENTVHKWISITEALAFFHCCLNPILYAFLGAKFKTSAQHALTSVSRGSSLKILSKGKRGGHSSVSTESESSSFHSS

Turning to anti-CXCR4 mAb (12G5) (antibody), the Mean Channel Fluorescence in [1] was determined as 35. Still for that read-out and setting: then anti-CXCR4 NT (4G10) (antibody), with 136. The substance “AGTCAGAGGCCAAGGAAGCTGTTGGCTG (double strand) [CXCR4 12257 target]” gave an activity in the series on ZFN 12257 (synthetic) greater than 20 % NHEJ. Regarding “ATGACTTGTGGGTGGTTGTGTTCCAGTT (double strand) [CXCR4 12270 target]”, the activity in the series with ZFN 12270 (synthetic) is greater than 20 % NHEJ.

In the series with ZFN 12273 (synthetic), “GGGTAGAAGCGGTCACAGATATATCTGT (double strand) [CXCR4 12273 target]” showed an activity greater than 20 % NHEJ. Take “CAGTTGATGCCGTGGCAAACTGGTACTT (double strand) [CXCR4 12281 target]”: the activity with ZFN 12281 (synthetic) was greater than 20 % NHEJ. Turning to “TTGGTGGCGTGGACGATGGCCAGGTAGC (double strand) [CXCR4 12329 target]”, the activity in the series on ZFN 12329 (synthetic) was greater than 20 % NHEJ.

In the series on ZFN 12290 (synthetic), “CCAGAAGGGAAGCGTGATGACAAAGAGG (double strand) [CXCR4 12290 target]” displayed an activity greater than 20 % NHEJ. With Anti-HLA Cl-I W6/32 (antibody), the Mean Channel Fluorescence with HLA Class I [2] came to 170; with HLA Class I [3], 83; with HLA Class I [4], 189; in the series with HLA Class I [5], 152.
